Test results reported in patent US7223398.

B1: ragweed allergen Amb a 1 (protein, UniProt P27759 26-396, looked up)
chain: AEDLQEILPVNETRRLTTSGAYNIIDGCWRGKADWAENRKALADCAQGFGKGTVGGKDGDIYTVTSELDDDVANPKEGTLRFGAAQNRPLWIIFERDMVIRLDKEMVVNSDKTIDGRGAKVEIINAGFTLNGVKNVIIHNINMHDVKVNPGGLIKSNDGPAAPRAGSDGDAISISGSSQIWIDHCSLSKSVDGLVDAKLGTTRLTVSNSLFTQHQFVLLFGAGDENIEDRGMLATVAFNTFTDNVDQRMPRCRHGFFQVVNNNYDKWGSYAIGGSASPTILSQGNRFCAPDERSKKNVLGRHGEAAAESMKWNWRTNKDVLENGAIFVASGVDPVLTPEQSAGMIPAEPGESALSLTSSAGVLSCQPGAPC
B2: AIC-M (covalent conjugate of Amb a 1 and ISS-containing polynucleotide SEQ ID NO:1, medium extent of conjugation) (protein, ragweed, UniProt P27759 26-396, looked up)
chain: B1 chain
modifications: average of 3.5 to 4.5 oligonucleotides (5' thio ISS oligonucleotide, SEQ ID NO:1) per Amb a 1 molecule, linked through the heterobifunctional linker sSMCC; Amb a 1 blocked with N-ethyl maleimide before activation
B3: AIC-H (covalent conjugate of Amb a 1 and ISS-containing polynucleotide SEQ ID NO:1, high extent of conjugation) (protein, ragweed, UniProt P27759 26-396, looked up)
chain: B1 chain
modifications: average of >5.5 oligonucleotides (5' thio ISS oligonucleotide, SEQ ID NO:1) per Amb a 1 molecule, linked through the heterobifunctional linker sSMCC; Amb a 1 blocked with N-ethyl maleimide before activation
B4: AIC-L (covalent conjugate of Amb a 1 and ISS-containing polynucleotide SEQ ID NO:1, low extent of conjugation) (protein, ragweed, UniProt P27759 26-396, looked up)
chain: B1 chain
modifications: average of 2-3 oligonucleotides (5' thio ISS oligonucleotide, SEQ ID NO:1) per Amb a 1 molecule, linked through the heterobifunctional linker sSMCC; Amb a 1 blocked with N-ethyl maleimide before activation

Legend:
[1] = biological target: IgE on basophils of ragweed allergic patients; test: cell-based or functional assay
[2] = biological target: Amb a 1 specific IgE (in serum); test: competition ELISA: soluble competitor pre-incubated with serum, IgE binding to plate-coated Amb a 1
[3] = biological target: Amb a 1 specific IgE (in serum); test: competition ELISA, ratio against soluble Amb a 1 as reference
[4] = biological target: Amb a 1 specific IgE (in serum); test: competition ELISA: soluble competitor pre-incubated with serum, IgE binding to plate-coated Amb a 1; two lots gave the same value

Row | Binder | HR40 (concentration required to induce 40% histamine release), patient four [1] [µg/mL] | HR40 (concentration required to induce 40% histamine release), patient one [1] [µg/mL] | HR40 (concentration required to induce 40% histamine release), patient three [1] [µg/mL] | HR40 (concentration required to induce 40% histamine release), patient two [1] [µg/mL] | HR40, mean of four patients [1] [µg/mL] | IC50 [2] [µg/mL] | Ratio AIC:Amb a 1 of HR40 [1] [fold] | ratio of AIC-M to Amb a 1 for 50% inhibition [3] | IC50 [4] [µg/mL] | ratio of AIC-H to Amb a 1 for 50% inhibition [3]
1 | B1 | 0.0003 | 0.0002 | 0.0003 | 0.0002 | 0.0003 | 0.04 |  |  |  | 
2 | B2 | 0.07 | 0.03 | 0.03 | 0.028 | 0.0395 | 0.12 | 132 | 3 |  | 
3 | B3 | > 1 | 0.5 | > 0.1 | > 0.1 | > 0.425 |  | > 1420 |  | 0.19 | 4.75
4 | B4 | 0.026 | 0.02 | 0.01 | 0.018 | 0.0185 |  | 62 |  |  | 
